Results from publication PMC5570423, “Structural characterisation of TNRC6A nuclear localisation signal in complex with importin-alpha” (PLoS ONE, 2017).

Biological target: Mouse importin-α1 lacking the IBB domain (mImpα1ΔIBB; residues 70–529) (mouse, UniProt P52293 70-529)
Experiment: ELISA; solid phase plate binding assay, no cross-linking: MaxiSorp plates coated with 25 nM GST-cNLS or GST in PBS, 0.2 mM PMSF, 2 mM DTT; serial dilutions of S-tagged mImpα1ΔIBB, 1 hr at 4°C; detected with S-protein-HRP; apparent Kd, one-site specific binding, duplicates
Details: both partners purified

B1: GST-TNRC6A cNLS P3 mutant (Arg1168Lys) (peptide)
chain: SGKKKRRER
notes: also called P3 TNRC6A mutant; source: E. coli BL21(DE3), purified
Kd: 1880 nM

SGKKRRKER (source: E. coli BL21(DE3), purified) [GST-TNRC6A cNLS P5 mutant (Arg1170 to Lys)]
Kd: 1140 nM

SGKKKRKER (source: E. coli BL21(DE3), purified) [GST-TNRC6A cNLS P3, P5 mutant (Arg1168Lys and Arg1170Lys)]
Kd: 898 nM

B2: GST-TNRC6A cNLS N-term mutant (1164Ser-Gly1165 substituted to prolines) (peptide)
chain: PPKKRRRER
notes: also called TNRC6A N-term mutant; source: E. coli BL21(DE3), purified
Kd: 19 nM

B3: GST-TNRC6A cNLS (residues 1164–1172 of mouse TNRC6A, corresponding to residues 1179–1187 of human TNRC6A isoform 1) (peptide)
chain: SGKKRRRER
notes: TNRC6A classical nuclear localisation signal, mouse residues 1164-1172 = human residues 1179-1187 (isoform 1; 926-934 in isoform 2); the motif is strictly conserved between mouse and human; Cloned into pGEX-6P with overlapping oligonucleotides; also called GST-cNLS; GST-NLS; source: E. coli BL21(DE3), purified
Kd: 75.6 nM
